Results as given in the supplement of paper PMC10567573.

B1: SFRS1 (parent)
chain: RDIDLKNRRGGPPFAFVEFEDPRD
B2: ALKBH7 (parent)
chain: SVICRSLPEGMGPGESGQPPPAC

Variants of: B1
Assay: protein stability index of a GFP-peptide fusion (GPS, HEK-293T) (PSI 1-6); higher = more stable
Conditions: c terminus: a fixed tail appended
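Also: lentivirally expressed fusions sorted by FACS into six bins by GFP to DsRed ratio, PSI derived from sequencing read proportions per bin multiplied by bin number.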

Protein stability index, by site and new letter:
P13: A 4.62 | T 4.34 | L 3.28 | D 4.58 | R 4.23 | M 4.02 | I 3.34 | C 4.51 | G 3.86 | H 4.65 | W 3.39 | E 4.83 | F 3.42 | K 4.02 | V 3.37 | N 4.59 | Q 4.79 | S 4.57 | Y 4
L5: G 3.74 | D 4.49 | T 3.72 | Y 3.3 | C 3.11 | A 4.09 | R 3.35 | K 3.81 | E 4.49 | H 3.59 | W 3.41 | V 3.94 | Q 4.13 | S 4.06 | M 3.93 | I 3.67 | P 3.68 | N 3.89 | F 3.35
F14: D 4.86 | A 5.04 | C 4.91 | E 5.48 | H 5.01 | G 4.92
K6: M 4.07 | C 3.91 | Y 3.78 | H 4.71 | N 4.04 | D 3.84 | R 3.47 | P 3.63 | Q 4.22 | A 4.18 | G 3.98 | V 4.09 | L 3.95 | W 3.79 | I 3.69 | S 4.35 | F 3.61 | T 4.02 | E 4.28
N7: Q 3.56 | T 3.73 | M 3.26 | C 3.56 | D 4.54 | W 3.28 | S 3.5 | L 3.39 | V 3.39 | P 3.78 | F 2.76 | K 3.41 | Y 3.02 | G 4.16 | A 3.61 | E 4.26 | I 3.63 | R 3.1 | H 3.61
G11: Q 3.47 | V 3.89 | W 3.1 | C 3.77 | T 3.87 | D 4.23 | L 2.21 | M 2.61 | H 3.52 | Y 3.28 | A 4.11 | R 3.25 | K 3.78 | N 3.83 | E 4.47 | F 3 | S 4.17 | P 3.36 | I 3
I3: Q 4.1 | H 3.92 | K 3.77 | F 3.64 | M 3.57 | W 3.95 | G 4.15 | R 3.6 | C 3.75 | V 3.79 | E 4.71 | T 3.73 | D 4.57 | L 3.81 | N 3.81 | Y 3.56 | A 4.29 | P 3.98 | S 3.45
G10: T 4.3 | D 4.15 | N 3.63 | M 3.51 | L 3.51 | S 4.21 | A 3.76 | E 4.2 | Q 4.18 | I 3.41 | K 3.42 | R 2.96 | P 3.73 | V 3.71 | W 2.77 | C 3.22 | H 3.85 | Y 3.19 | F 3.9
P12: L 3.5 | A 4.12 | Y 3.98 | T 4.37 | V 3.9 | D 5.06 | N 4.72 | F 3.5 | K 4.42 | C 4.13 | W 3.43 | E 4.72 | Q 4.17 | M 3.93 | I 3.13 | G 4.39 | H 4.53 | R 3.93 | S 4
R1: W 2.69 | I 3.1 | P 3.81 | T 3.94 | Y 3.65 | E 4.36 | V 3.97 | A 4.38 | C 4.2 | Q 3.96 | G 4.01 | L 4.21 | F 3.19 | K 3.57 | D 4.74 | N 4.2 | M 4.04 | S 3.84 | H 3.89
R8: L 3.77 | N 4.27 | Y 3.96 | Q 4.18 | A 4.06 | D 4.42 | G 4.46 | P 4.19 | F 3.75 | I 4.08 | S 4.32 | E 4.73 | T 4.33 | H 3.71 | K 4.13 | V 4.17 | C 4.23 | M 4.12 | W 3.71
R9: K 3.69 | W 4.23 | N 4.5 | F 3.94 | P 4.16 | D 4.43 | G 4.11 | H 4.21 | S 4.12 | E 4.18 | V 4.21 | Y 3.91 | A 4.57 | Q 4.11 | I 4.24 | L 4.27 | T 4.03 | C 3.92 | M 4.04
D2: S 3.6 | E 4.06 | H 3.19 | P 3.51 | C 3.1 | V 3.28 | R 3.34 | W 2.1 | I 2.68 | M 3.29 | T 3.19 | K 3.12 | Q 3.25 | Y 2.76 | L 2.62 | G 3.06 | F 2.91 | A 2.59 | N 3.41
D4: H 3.25 | M 3.4 | P 3.08 | R 3.45 | L 3.42 | V 2.85 | T 3.28 | C 3.33 | K 3.47 | F 2.81 | A 3.11 | S 3.83 | W 2.35 | Q 3.57 | G 3.34 | N 3.61 | E 3.61 | Y 2.92 | I 3.17

Variants of: B2
Assay: as above
Conditions: c terminus: native

Protein stability index, by site and new letter:
P21: E 2.47 | Y 2.59 | C 2.17 | A 1.68 | H 3.44 | Q 3.36 | G 4.95 | I 2.5 | F 2.69 | S 4.08 | V 3.21 | M 1.18 | D 2.63 | K 3.92 | L 1.28 | T 2.51 | N 4.05
A22: F 5.01 | I 3.19 | L 4.3 | Q 4.92 | Y 4.68 | R 5 | C 4.31 | V 3.77 | D 5.53 | N 5.43 | H 4.75 | S 3.69 | E 4.63 | K 5.64 | M 4.74 | W 4.77 | T 4.77 | G 5.1
P20: E 3.55 | N 4.14 | T 2.08 | Q 1.64 | F 2.45 | I 3.72 | G 4.91 | H 3.78 | K 4.38 | C 2.42 | M 1.79 | D 4.12 | R 4.09 | Y 3.31 | S 3.75
P19: R 2.69 | E 5.1 | W 2.26 | Y 2.33 | K 3.18 | T 1.95 | Q 4.22 | N 4.27 | I 3.09 | V 4.2 | S 4.04 | M 1.64 | F 1.99 | H 3.66 | L 2.19
C23: R 4.76 | I 5.17 | T 4.52 | W 4.15 | H 5.02 | Q 3.8 | L 4.69 | V 4.54 | N 5.35 | K 4.35 | Y 4.45 | F 4.57 | S 2.99 | M 5.48 | E 4.31 | D 4.63
